Data reported in patent US20260139001A1 (Harvard, published 2026).

Target: RBD (Severe acute respiratory syndrome …, UniProt P59594)

B1: Wuhan-NS (VHH72 NoK V104K conjugated with NBD-x; V104NBDxK) (VHH)
VHH: QVQLQESGGGLVQAGGSLRLSCAASGRTFSEYAMGWFRQAPGREREFVATISWSGGSTYYTDSVRGRFTISRDNARNTVYLQMNSLRPDDTAVYYCAAAGLGTKVSEWDYDYDYWGQGTQVTVSS
**Q.** Which EC50 does the source give for B1 here?
**A.** 123 nM
